# Reference: publication PMC314469, “Protein Interaction Networks by Proteome Peptide Scanning” (PLoS Biology, 2004)
# Legend:
# Test in all cases: SPOT array
# [1] = molecular target: T1, Boi2 SH3 (BOI2_YEAST), P39969
# T1 chain: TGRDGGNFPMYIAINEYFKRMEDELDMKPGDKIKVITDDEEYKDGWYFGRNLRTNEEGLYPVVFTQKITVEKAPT
# [2] = molecular target: T2, Yfr024 SH3 (LSB3_YEAST), P43603
# T2 chain: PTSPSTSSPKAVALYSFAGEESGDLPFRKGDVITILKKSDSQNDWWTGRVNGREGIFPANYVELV
# [3] = molecular target: T3, Yhr016c SH3 (YSC84_YEAST), P32793
# T3 chain: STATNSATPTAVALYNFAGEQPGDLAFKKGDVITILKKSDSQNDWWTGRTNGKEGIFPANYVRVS
# [4] = molecular target: T4, Rvs167 SH3 (RV167_YEAST), P39743
# T4 chain: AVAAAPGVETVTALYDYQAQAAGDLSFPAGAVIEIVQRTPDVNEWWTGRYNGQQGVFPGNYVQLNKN
# [5] = molecular target: T5, Boi1 SH3 (BOI1_YEAST), P38041
# T5 chain: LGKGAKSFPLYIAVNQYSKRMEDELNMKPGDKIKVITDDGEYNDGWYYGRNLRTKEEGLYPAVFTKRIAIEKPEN
Binder,"normalised SPOT signal, Boehringer light units (BLU); mean over the file's lines of this peptide [1]","normalised SPOT signal, Boehringer light units (BLU); mean over the file's lines of this peptide [2]","normalised SPOT signal, Boehringer light units (BLU); mean over the file's lines of this peptide [3]","normalised SPOT signal, Boehringer light units (BLU); mean over the file's lines of this peptide [4]","normalised SPOT signal, Boehringer light units (BLU); mean over the file's lines of this peptide [5]"
VIMPEGPRKSVSMA [YJL005W 424-437],232,1120,358,176,75.3
VIRPGVPTKFTKKQ [YDL171C 1275-1288],63.3,202,125,58.1,121
VKEPSFPSRSAFSP [YMR191W 432-445],41.9,1090,246,59,44.6
VKHPMKPFRLMLTD [YGL194C 43-56],203,3950,3110,358,101
VKKPARPWRAKPGQ [YKL220C 450-463],88.2,5310,314,49.8,90.9
VKRPLSPTRINGKS [YDR379W 155-168],49,2290,499,445,208
VLEPSKPYKKNPFM [YBR284W 663-676],84,238,127,5.8,116
VMKPKSPDKEFFDA [YJR066W 1483-1496],134,852,280,48.3,90.1
VMVPHLPGKILLSN [YOR357C 104-117],83.6,413,387,58,253
VNTPREPVRSSSKI [YJL076W 1015-1028],30.9,910,99.4,69.7,75.8
VPDPSTPSKPNLEV [YML016C 62-75],12.4,136,157,19.5,16.2
VPEPSKPSRLLLVR [YNL034W 549-562],17,1200,425,23.1,61.9
VPPPNVPKKDKREV [YBR058C 659-672],17.8,980,206,124,294
VPRPSPPIRRKSST [YNL106C 1070-1083],232,23000,3880,3250,494
VPSPGLPEKVNEKS [YLR119W 34-47],25.5,141,217,-0,80.3
VPSPIVPNKMRKQL [YKL052C 214-227],126,2650,191,202,530
VQQPEDPLRVLGEY [YDR469W 143-156],16.6,46.1,65.5,37.1,24.5
VQTPHVPDRPPSQL [YPR104C 731-744],55.9,4140,845,52.6,53.1
VSDPYVPTRNTFNY [YDL020C 142-155],23.2,814,268,60.9,174
VSIPFDPSKDTFDH [YEL031W 741-754],34.1,0,70.3,72.7,105
VSPPFFPEKELNNR [YKR010C 454-467],25.6,323,97.4,32.6,41.2
VSTPPVPKKFQEIF [YDL107W 9-22],35.5,695,55.4,53.6,62.2
